The text below walks through data of patent US20250236673A1 (Ablynx, published 2025).

B1: T028501806 (VHH)
VHH: EVQLVESGGGVVQPGGSLRLSCAASGFTFRSFGMSWVRQAPGEGPEWVSSISGSGSDTLYADSVKGRFTISRDNSKNTLYLQMNSLRPEDTALYYCTIGGSLSRSSQGTLVTVSS
notes: K43E vs precursor T028501805; also called HSA006A06(K43E, K83R)
B2: T028501813 (VHH)
VHH: EVQLVESGGGVVQPGGSLRLSCAASGFTFRSFGMSWVRQAPGKGPEWVSSISGSGSDTLYADSVKGRFTISRDNSENTLYLQMNSLRPEDTALYYCTIGGSLSRSSQGTLVTVSS
notes: K75E vs precursor T028501805; also called HSA006A06(K75E, K83R)
B3: T028501809 (VHH)
VHH: EVQLVESGGGVVQPGGSLRLSCAASGFTFRSFGMSWVRQAPGAGPEWVSSISGSGSDTLYADSVKGRFTISRDNSKNTLYLQMNSLRPEDTALYYCTIGGSLSRSSQGTLVTVSS
notes: K43A vs precursor T028501805; also called HSA006A06(K43A, K83R)
B4: T028501807 (VHH)
VHH: EVQLVESGGGVVQPGGSLRLSCAASGFTFRSFGMSWVRQAPGQGPEWVSSISGSGSDTLYADSVKGRFTISRDNSKNTLYLQMNSLRPEDTALYYCTIGGSLSRSSQGTLVTVSS
notes: K43Q vs precursor T028501805; also called HSA006A06(K43Q, K83R)
B5: T028501833 (VHH)
VHH: EVQLVESGGGVVQPGGSLRLSCAASGFTFRSFGMSWVRQAPGRGPEWVSSISGSGSDTLYADSVKGRFTISRDNSKNTLYLQMNSLRPEDTALYYCTIGGSLSRSSQGTLVTVSS
notes: K43R vs precursor T028501805; also called HSA006A06(K43R, K83R)
B6: T028501808 (VHH)
VHH: EVQLVESGGGVVQPGGSLRLSCAASGFTFRSFGMSWVRQAPGHGPEWVSSISGSGSDTLYADSVKGRFTISRDNSKNTLYLQMNSLRPEDTALYYCTIGGSLSRSSQGTLVTVSS
notes: K43H vs precursor T028501805; also called HSA006A06(K43H, K83R)
B7: T028501816 (VHH)
VHH: EVQLVESGGGVVQPGGSLRLSCAASGFTFRSFGMSWVRQAPGKGPEWVSSISGSGSDTLYADSVKGRFTISRDNSANTLYLQMNSLRPEDTALYYCTIGGSLSRSSQGTLVTVSS
notes: K75A vs precursor T028501805; also called HSA006A06(K75A, K83R)
B8: T028501810 (VHH)
VHH: EVQLVESGGGVVQPGGSLRLSCAASGFTFRSFGMSWVRQAPGKGPEWVSSISGSGSDTLYADSVEGRFTISRDNSKNTLYLQMNSLRPEDTALYYCTIGGSLSRSSQGTLVTVSS
notes: K64E vs precursor T028501805; also called HSA006A06(K64E,K83R)
B9: T028501812 (VHH)
VHH: EVQLVESGGGVVQPGGSLRLSCAASGFTFRSFGMSWVRQAPGKGPEWVSSISGSGSDTLYADSVHGRFTISRDNSKNTLYLQMNSLRPEDTALYYCTIGGSLSRSSQGTLVTVSS
notes: K64H vs precursor T028501805; also called HSA006A06(K64H, K83R)
B10: T028501834 (VHH)
VHH: EVQLVESGGGVVQPGGSLRLSCAASGFTFRSFGMSWVRQAPGKGPEWVSSISGSGSDTLYADSVRGRFTISRDNSKNTLYLQMNSLRPEDTALYYCTIGGSLSRSSQGTLVTVSS
notes: K64R vs precursor T028501805; also called HSA006A06(K64R, K83R)
B11: T028501815 (VHH)
VHH: EVQLVESGGGVVQPGGSLRLSCAASGFTFRSFGMSWVRQAPGKGPEWVSSISGSGSDTLYADSVKGRFTISRDNSRNTLYLQMNSLRPEDTALYYCTIGGSLSRSSQGTLVTVSS
notes: K75R vs precursor T028501805; also called HSA006A06(K75R, K83R)
B12: T028501811 (VHH)
VHH: EVQLVESGGGVVQPGGSLRLSCAASGFTFRSFGMSWVRQAPGKGPEWVSSISGSGSDTLYADSVQGRFTISRDNSKNTLYLQMNSLRPEDTALYYCTIGGSLSRSSQGTLVTVSS
notes: K64Q vs precursor T028501805; also called HSA006A06(K64Q, K83R)
B13: T028501835 (VHH)
VHH: EVQLVESGGGVVQPGGSLRLSCAASGFTFRSFGMSWVRQAPGKGPEWVSSISGSGSDTLYADSVAGRFTISRDNSKNTLYLQMNSLRPEDTALYYCTIGGSLSRSSQGTLVTVSS
notes: K64A vs precursor T028501805; also called HSA006A06(K64A, K83R)
B14: T028501814 (VHH)
VHH: EVQLVESGGGVVQPGGSLRLSCAASGFTFRSFGMSWVRQAPGKGPEWVSSISGSGSDTLYADSVKGRFTISRDNSQNTLYLQMNSLRPEDTALYYCTIGGSLSRSSQGTLVTVSS
notes: K75Q vs precursor T028501805; also called HSA006A06(K75Q, K83R)
B15: T028501836 (VHH)
VHH: EVQLVESGGGVVQPGGSLRLSCAASGFTFRSFGMSWVRQAPGKGPEWVSSISGSGSDTLYADSVKGRFTISRDNSHNTLYLQMNSLRPEDTALYYCTIGGSLSRSSQGTLVTVSS
B16: T028501825 (VHH)
VHH: EVQLVESGGGVVQPGGSLRLSCAASGHTFSEYALGWFRQAPGKEREFVAAINWGGGWTYYADSVRGRFTISRDNAKNTLYLQMNSLRPEDTALYYCAASSDYAGGNPTGYPYWGQGTLVTVSS
notes: K64R vs precursor T028501817; also called A0315024B02(M43K, Q64R, K83R)
B17: T028501832 (VHH)
VHH: EVQLVESGGGVVQPGGSLRLSCAASGHTFSEYALGWFRQAPGKEREFVAAINWGGGWTYYADSVKGRFTISRDNAANTLYLQMNSLRPEDTALYYCAASSDYAGGNPTGYPYWGQGTLVTVSS
notes: K75A vs precursor T028501817; also called A0315024B02(M43K, Q64K,K75A, K83R)
B18: T028501830 (VHH)
VHH: EVQLVESGGGVVQPGGSLRLSCAASGHTFSEYALGWFRQAPGKEREFVAAINWGGGWTYYADSVKGRFTISRDNARNTLYLQMNSLRPEDTALYYCAASSDYAGGNPTGYPYWGQGTLVTVSS
notes: K75R vs precursor T028501817; also called A0315024B02(M43K, Q64K, K75R, K83R)
B19: T028501826 (VHH)
VHH: EVQLVESGGGVVQPGGSLRLSCAASGHTFSEYALGWFRQAPGKEREFVAAINWGGGWTYYADSVHGRFTISRDNAKNTLYLQMNSLRPEDTALYYCAASSDYAGGNPTGYPYWGQGTLVTVSS
notes: K64H vs precursor T028501817; also called A0315024B02(M43K, Q64H, K83R)
B20: T028501827 (VHH)
VHH: EVQLVESGGGVVQPGGSLRLSCAASGHTFSEYALGWFRQAPGKEREFVAAINWGGGWTYYADSVAGRFTISRDNAKNTLYLQMNSLRPEDTALYYCAASSDYAGGNPTGYPYWGQGTLVTVSS
notes: K64A vs precursor T028501817; also called A0315024B02(M43K, Q64A, K83R)
B21: T028501829 (VHH)
VHH: EVQLVESGGGVVQPGGSLRLSCAASGHTFSEYALGWFRQAPGKEREFVAAINWGGGWTYYADSVKGRFTISRDNAQNTLYLQMNSLRPEDTALYYCAASSDYAGGNPTGYPYWGQGTLVTVSS
notes: K75Q vs precursor T028501817; also called A0315024B02(M43K, Q64K, K75Q, K83R)
B22: T028501828 (VHH)
VHH: EVQLVESGGGVVQPGGSLRLSCAASGHTFSEYALGWFRQAPGKEREFVAAINWGGGWTYYADSVKGRFTISRDNAENTLYLQMNSLRPEDTALYYCAASSDYAGGNPTGYPYWGQGTLVTVSS
notes: K75E vs precursor T028501817; 38 used; also called A0315024B02(M43K, Q64K, K75E, K83R)
B23: T028501831 (VHH)
VHH: EVQLVESGGGVVQPGGSLRLSCAASGHTFSEYALGWFRQAPGKEREFVAAINWGGGWTYYADSVKGRFTISRDNAHNTLYLQMNSLRPEDTALYYCAASSDYAGGNPTGYPYWGQGTLVTVSS
notes: K75H vs precursor T028501817; also called A0315024B02(M43K, Q64K, K75H, K83R)

For the first experiment, the target named is T1, human serum albumin (human, UniProt P02768 25-609).
T1 construct: Immobilised by amine coupling on a C1 chip; also called HSA
T1 sequence (P02768 25-609 limits assumed): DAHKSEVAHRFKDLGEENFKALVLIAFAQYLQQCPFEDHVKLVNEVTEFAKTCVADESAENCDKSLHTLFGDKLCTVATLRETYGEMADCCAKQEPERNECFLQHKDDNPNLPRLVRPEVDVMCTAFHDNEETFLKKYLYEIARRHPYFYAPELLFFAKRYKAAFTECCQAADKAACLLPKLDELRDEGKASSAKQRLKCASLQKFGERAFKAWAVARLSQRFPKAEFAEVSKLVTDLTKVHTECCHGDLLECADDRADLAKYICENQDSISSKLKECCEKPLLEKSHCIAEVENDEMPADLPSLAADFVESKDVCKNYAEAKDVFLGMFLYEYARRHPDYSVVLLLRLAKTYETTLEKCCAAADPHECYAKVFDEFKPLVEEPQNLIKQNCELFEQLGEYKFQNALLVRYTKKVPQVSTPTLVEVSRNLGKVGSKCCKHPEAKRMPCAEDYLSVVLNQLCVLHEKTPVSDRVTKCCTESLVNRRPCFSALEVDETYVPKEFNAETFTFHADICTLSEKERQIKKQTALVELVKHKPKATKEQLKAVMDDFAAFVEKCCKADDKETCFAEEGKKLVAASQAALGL
In words: SPR Biacore 8K+, HSA amine-coupled on C1 chip, ISVD analyte, 1:1 fit. In general terms: In SPR one partner is held on a chip, and binding of the other changes the refractive index at the surface.
Consider B1, for which the Kd came out at 1.26 nM, the koff was 0.00108 s⁻¹ and the kon is 856000 M⁻¹ s⁻¹.
On the same counts, the results for B2 are 1.98 nM, 0.00102 s⁻¹ and 514000 M⁻¹ s⁻¹.
Turning to B3, the Kd came to 1.13 nM, the koff is 0.000872 s⁻¹ and the kon was found to be 769000 M⁻¹ s⁻¹.
The molecule B4 returned a Kd of 1.76 nM, a koff of 0.00119 s⁻¹ and a kon of 677000 M⁻¹ s⁻¹.
The corresponding values for B5 are 1.29 nM, 0.000906 s⁻¹ and 703000 M⁻¹ s⁻¹.
Turning to B6, binding was put at a Kd of 1.4 nM, the koff came out at 0.00102 s⁻¹ and the kon was 728000 M⁻¹ s⁻¹.
B7 yielded a Kd of 1.31 nM, a koff of 0.00105 s⁻¹ and a kon of 799000 M⁻¹ s⁻¹.
On the same counts, the results for B8 are 1.93 nM, 0.00124 s⁻¹ and 644000 M⁻¹ s⁻¹.
Consider B9, for which the affinity, expressed as Kd, was 1.74 nM; the koff amounted to 0.00102 s⁻¹; the kon worked out at 590000 M⁻¹ s⁻¹.
On the same counts, the results for B10 are 1.11 nM, 0.00112 s⁻¹ and 1.01e+06 M⁻¹ s⁻¹.
The corresponding values for B11 are 1.48 nM, 0.00127 s⁻¹ and 860000 M⁻¹ s⁻¹.
On the same counts, the results for B12 are 1.76 nM, 0.00103 s⁻¹ and 587000 M⁻¹ s⁻¹.
In the case of B13, the equilibrium dissociation constant (Kd) came out at 2.06 nM, the koff came to 0.00108 s⁻¹ and the kon came to 524000 M⁻¹ s⁻¹.
The corresponding values for B14 are 1.4 nM, 0.00114 s⁻¹ and 814000 M⁻¹ s⁻¹.
On the same counts, the results for B15 are 1.35 nM, 0.00114 s⁻¹ and 839000 M⁻¹ s⁻¹.

Another experiment addresses T2, recombinant human CEACAM5 (human, UniProt P06731 35-685, limits assumed).
T2 construct: Immobilised by amine coupling on a CM5 chip
T2 sequence (looked up): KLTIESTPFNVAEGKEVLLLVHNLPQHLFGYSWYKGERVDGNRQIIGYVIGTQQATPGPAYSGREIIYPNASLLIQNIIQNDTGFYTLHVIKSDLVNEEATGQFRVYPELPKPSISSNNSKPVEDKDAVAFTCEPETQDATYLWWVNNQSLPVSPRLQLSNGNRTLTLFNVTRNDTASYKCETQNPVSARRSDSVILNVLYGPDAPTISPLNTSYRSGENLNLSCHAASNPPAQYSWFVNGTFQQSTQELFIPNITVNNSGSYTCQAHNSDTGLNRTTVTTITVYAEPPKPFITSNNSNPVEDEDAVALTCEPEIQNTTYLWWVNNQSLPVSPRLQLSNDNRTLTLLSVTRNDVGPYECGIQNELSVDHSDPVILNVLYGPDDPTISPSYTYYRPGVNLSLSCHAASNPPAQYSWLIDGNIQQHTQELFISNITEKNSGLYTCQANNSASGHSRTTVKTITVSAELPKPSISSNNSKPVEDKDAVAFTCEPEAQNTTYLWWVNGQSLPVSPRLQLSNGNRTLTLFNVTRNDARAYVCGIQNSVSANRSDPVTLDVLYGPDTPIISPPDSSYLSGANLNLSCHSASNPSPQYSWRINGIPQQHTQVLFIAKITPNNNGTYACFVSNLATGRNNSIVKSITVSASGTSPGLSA
Kind of experiment: SPR Biacore 8K+, CEACAM5 amine-coupled on CM5, ISVD analyte, 1:1 fit.
For B16, the Kd is 7.27 nM, the koff is 0.00241 s⁻¹ and the kon came out at 331000 M⁻¹ s⁻¹.
The corresponding values for B17 are 6.34 nM, 0.00204 s⁻¹ and 322000 M⁻¹ s⁻¹.
The corresponding values for B18 are 6.01 nM, 0.00207 s⁻¹ and 344000 M⁻¹ s⁻¹.
In the case of B19, the Kd worked out at 8.42 nM, the koff is 0.00232 s⁻¹ and the kon was 275000 M⁻¹ s⁻¹.
The corresponding values for B20 are 7.95 nM, 0.00235 s⁻¹ and 295000 M⁻¹ s⁻¹.
On the same counts, the results for B21 are 7.14 nM, 0.00208 s⁻¹ and 291000 M⁻¹ s⁻¹.
On the same counts, the results for B22 are 7.51 nM, 0.00203 s⁻¹ and 270000 M⁻¹ s⁻¹.
In the case of B23, the Kd was found to be 7.8 nM, the koff is 0.00209 s⁻¹ and the kon was 268000 M⁻¹ s⁻¹.

For orientation: Kd means the free concentration of one partner at which half of the binding sites on the other are occupied at equilibrium, for simple one-to-one binding. A word on the koff: it is the first-order rate constant of dissociation. In general, kon refers to the second-order rate constant of association.
